Experimental data published in the nanobody polyreactivity screen of Harvey et al. (2022).

Test: yeast display, Sf9 membrane polyspecificity reagent, FACS + sequencing; frameworks hold sequencing errors
Procedure, shortened: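 Nanobodies came from a synthetic yeast display library in Saccharomyces cerevisiae BJ5465, induced with galactose for 36–48 hours and stained for 1 hour at 4 °C with 10% biotinylated, detergent-solubilized Sf9 membrane reagent. Cells were enriched on streptavidin microbeads and then FACS-sorted, with low and high (top ~1%) gates set on anti-HA fluorescence for expression and streptavidin fluorescence for reagent binding. Each polyreactivity label reflects the gate a clone came from. Genes were amplified by colony PCR, sequenced by MiSeq 2 × 250 and filtered by CDR length.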

Sequence	polyreactivity (PSR sort gate)
QVQLVESGGGLVQAGGSLRLSCAASGGTFSPYAMGWYRQAPGKERELVAVIRSDVTTNYADSVKGRFTISRDNAKNTVYLQMNSLKPEDTAVYYCAVQYLGYGGLFPLDYWGQGTQVTVSS	low polyreactivity
QVQLVESGGGLVQAGGSLRLSCAASGGTFSPYDMGWYRQAPGKERELVASITGSGGSTYYADSVKGRFTISRGNAKNTVYLQMNSLKPEDTAVYYCAAQGYWTYWPYLLRLYDYWGQGTQVTVSS	low polyreactivity
QVQLVESGGGLVQAGGSLRLSCAASGGTFSRNAMGWYRQAPGKERELVAAINSSGVSTSYADSVKGRFTISRDNAKNTVYLQMNSLKPEDTAVYYCADETSSAEVDYWGQGTQVTVSS	low polyreactivity
QVQLVESGGGLVQAGGSLRLSCAASGGTFSRNAMGWYRQAPGKERELVAAITSGGRTNYADSVKGRFTISRDNAKNTVYLKMNSLKAEDTAVYYCAARKGKETLYHSTPPYYYWGQGTQVTVSS	high polyreactivity
QVQLVESGGGLVQAGGSLRLSCAASGGTFSSNAMGWYRQAPGKERELVAAITWSGGSTYYADSVKGRFTISRDNAKNTVYLQMNSLKPEDTAVYYCNARNQWRTVGKYDYWGQGTQVTVSS	low polyreactivity
QVQLVESGGGLVQAGGSLRLSCAASGGTFSSNDMGWYRQAPGKERELVAAISWSGSSTDYADSVKGRFTISRDNAKNTVYLQMNSLKPDDTAVYYCNTDYWEITYSGVIWPEYDYWGQCTQVTVSS	low polyreactivity
QVQLVESGGGLVQAGGSLRLSCAASGGTFSTNAMGWYRQAPGNERELVAAISLSGGRTDADSVKGRFTISRDNAKNTVYLQMNSLKPEDTAVYYCNADSAGITRARSELDYWGQGTQVTVSS	low polyreactivity
QVQLVESGGGLVQAGGSLRLSCAASGGTFSVYGMGGYRQAPGKERELVAAITLSGGRTYYADSVKGRFTISRDNATNTLSLQMNSLQPEDTAVYYCNTLPWSRTKRDYWGQGTQGTVSS	low polyreactivity
QVQLVESGGGLVQAGGSLRLSCAASGGTFSYNAMGWYRQAPGKERELVAAISWSGTRTYYADSVKGRFTISRDNAKNTVYLQMNSLKPEDTAVYYCNKTPPNRGRYDYCGQGTQVTVSS	low polyreactivity
QVQLVESGGGLVQAGGSLRLSCAASGGTFSYYAMGWYRQAPGKERELVASISTDGGSTYYADSVKGRFTISRDNAKNTVYLQMNSLKPEDTAVYYCNARPRGYSDRYGYWGQGTQVTVSS	high polyreactivity
QVQLVESGGGLVQAGGSLRLSCAASGGTFSYYTMGWYRQAPGKERELVARISKNGGRTYYADSVKGRFTISRDNAKNTVYLQMNCLKPEDTAVYYCNAAGRTYDFSGGRTMEYWGQGTQVTVSS	high polyreactivity
QVQLVESGGGLVQAGGSLRLSCAASGGTFTFYAMGWYRQAPGKERELVATINWSGGSTYYADSVKGRFTNSRDNAKNTVYLQMNSLKPEDTAVYYCNAAWAYKSVEYWGQGTQVTVSS	low polyreactivity
QVQLVESGGGLVQAGGSLRLSCAASGGTFVGYAMGWSRQAPGKERELVASITRRGGNTYYADSVKVRFTISRDNATNTFYLQMNSLNPEDTAVYYCANALVVQYGRYTGHPYDYWGQGTQVTVSS	high polyreactivity
QVQLVESGGGLVQAGGSLRLSCAASGGTFVYYTMGWYRQAPGKERELVAAITQSGSTTYYADSVKGRFTISRDNAKNTVYLQMNSLKPEDTAVYYCARRYGTWNAYDYWGQGTQVTVSS	low polyreactivity
QVQLVESGGGLVQAGGSLRLSCAASGGTFYGYAAMGWYRQAPGKERELVAAISRSGGRTYYADSVKGRFTISRDNAKNTVYLQMNSLKPEDTAVYYCNVGFYPYYFLTYQGGDYWGQGTQVTVSS	high polyreactivity
QVQLVESGGGLVQAGGSLRLSCAASGGTFYGYAMGWYRQAPGKERELVAAISYNGGNTYYADSVKGRFTISRDNAKNTVYLQMNSLKAEDTAVYYCAAGYSYRYGYWGQGTQLTVSS	low polyreactivity
QVQLVESGGGLVQAGGSLRLSCAASGGTFYPYAMGWYRQAPGKERELVAAISASDDNTYYADSVKGRFTISRDNAKNTVYLQMNSLKPEDTAVYYCAKRSYFYPYGYWGQGTQVTVSS	high polyreactivity
QVQLVESGGGLVQAGGSLRLSCAASGGTFYRNAMGWSRQAPGKERELVAAINYRGDRTYYADSVKGRFTISRDNAKNTVYLQMNSLKPEDTAVYYCAADSYPAYLGFVGFDYWGQGTQVTVSS	low polyreactivity
QVQLVESGGGLVQAGGSLRLSCAASGGTFYRYAMGWYRQAPGKERELVAVISKRGGTTYYADSVKGRFTISRDNAKITVYLQMNSLKPEDTAVYYCADRPYYWGQGTQVTVSS	high polyreactivity
QVQLVESGGGLVQAGGSLRLSCAASGGTFYSYAMGWYRQAPGIEREVVAAISRRGGSTYYADSVKGRFTISRDNAKNTVYLLMNSLKPEDTAVYFCNTYIYQVRDDYWGQGTQVTVSS	high polyreactivity
QVQLVESGGGLVQAGGSLRLSCAASGGTFYYYAMGWYRQAPGKERELVAAISRDGSTYYADSVKGRFTISRDNAKNTVYLQMNSLKPEDTAVYYCAVRTRRKYGYWGQGTQVTVSS	high polyreactivity
QVQLVESGGGLVQAGGSLRLSCAASGGTIAPYAMGWSRQAPGKERELVATISYSGTSTNYADSVKGRFTISRDNAKNTVYLQMNSLKPEDTAVYDCAKRYHQYRWRGWLWGFDYWGQGNQVTVSS	high polyreactivity

Sequence	polyreactivity (PSR sort gate)
QVQLVESGGGLVQAGGSLRLSCAASGGTIFAYAMGWYIQAPRERELVPAISWSGDSTYYADSLKGRFTISRDNAKNTVYLQMNSLKPEETAVYYCAADYGFEFYYWGQGTQVTVAS	high polyreactivity
QVQLVESGGGLVQAGGSLRLSCAASGGTIGSNTMGWYRQAPGKERELVAAITSGVSTNYADSVKGRFTISRDNAKNTVYLQMISLKPEDNAVYYCAKVLWSEEYETIITSYGFDYWGQGTQVTVSS	low polyreactivity
QVQLVESGGGLVQAGGSLRLSCAASGGTINGNTMGWYRQAPGKERELVAVIDWSGGSTYYADSVKGRFTISRDNAKNTVYLQMNSLKPEDTAVNYCNADSDAQFREPKGMYYWGQGTQVTLSS	low polyreactivity
QVQLVESGGGLVQAGGSLRLSCAASGGTIRVYAMRWYRQAPGKERELVAAITGRGGSTYYADSVKGRFTISRDNAKNTVYLQMNSLKPEDTAVYYCAKDPVTTYYKYDYWGQGTQVTVSS	low polyreactivity
QVQLVESGGGLVQAGGSLRLSCAASGGTIVYYAMGWYREAPGKERELVAAINWSGGSTYYADSVKGRFTISRDKAKNTVYLQMNSLKPEDTAVLLLQRSGLRRSGVWFDYWGQGTQVTVSS	low polyreactivity
QVQLVESGGGLVQAGGSLRLSCAASGGTIYFYDMGWYRQAPGKEREFVAAIDGSAGRTYYADSVKGRFTISRDNAKNTVYLQMNSLKPEDTAVYYCAADWAQQSEQEYGTTYDYWGQGTQVTVSS	low polyreactivity
QVQLVESGGGLVQAGGSLRLSCAASGGTLKYYAMGLYRQAPGKERELVATISSRGGSTYYADSVKGRFTISRDNAKNTVYLQMNSLKPEDTAVYYCARRYWVQSRYPELDYWGQGTQVTVSS	high polyreactivity
QVQLVESGGGLVQAGGSLRLSCAASGGTLPKYAMGWYRQAPGKERELVARITWNDGTTYYADSVKGRFTISRDNAKNTVYLQMNSLKPEDTAVYYCNTDRAYWFLYPFSYYYWGQGTQVTVSS	low polyreactivity
QVQLVESGGGLVQAGGSLRLSCAASGGTLRGNAMGWYRQAPGKERELVAAISGSAGRTYYADSVKGRFTISRDNAKNTVYLQMTSLKPVDTAVYYCAASRRVVKMDYWGQGTQVTVSS	high polyreactivity
QVQLVESGGGLVQAGGSLRLSCAASGGTLYLYAMGWYRQAPGKERELVAAISYNGGSTYAESVKGRFTISRDNAKNTVYLQKNSLKPEDTAVYYCAADRSPRGLGGYWGQGTQVTVSS	low polyreactivity
QVQLVESGGGLVQAGGSLRLSCAASGGTPQNAMGWYRQAPGKDRELVAAISKRGGSTYYADSVKGRFTISRDNAKNTGYLQMNSLKPEDTAVYDCAAVSQRAQHTSEYDYWGQGTQVTVSS	high polyreactivity
QVQLVESGGGLVQAGGSLRLSCAASGGTQRYYAMGWYRQAPGKERDFVASISRSGGSTYYADTVKGRFTISRDNAKNTVYLQMNSLKPEDTAVYYCAAYWSPGYTTRRGYWGQGTQVTVSS	high polyreactivity
QVQLVESGGGLVQAGGSLRLSCAASGGTQRYYVMGSYRQAPGKERELVAAISWSGDSTYYADSVKGRFTISRDNAKNTVYLQMNSLKPEDTAVYYCAATYYLTYYYGQANHCYDYWGQGTQVTVSS	low polyreactivity
QVQLVESGGGLVQAGGSLRLSCAASGGTSIYNDMGWYRQAPGKERELVAAISWSGGSTYYADSVKGRFTISRDNAKNTVYLQMNSLKPEDTAVYYCATQGFYKDYSRYDYWGQVTQVTVSS	low polyreactivity
QVQLVESGGGLVQAGGSLRLSCAASGGTSQRYVMGWYRQAPGKERELVAAITSTGSTYYADSVKWRFTISRDNAKNTVYLQMNSLKPEDTAVYYCATGRLRIYKSYYWGQGTQVTVSS	high polyreactivity
QVQLVESGGGLVQAGGSLRLSCAASGGTYRSNAMGWYRQAPGKERELVAASTNYADSVKGRFTISRDNAKNTVYLQMNSLKPEDTAVYYCAAGPTDSQTGMDYWGQGTQVTVSS	low polyreactivity
QVQLVESGGGLVQAGGSLRLSCAASGHIFLGNVMGWYRQAPGKERELVAAISKRGGRTYYADSVKGRFTISRDNAKNTVYLQMNSLKPEDTAVYYCAAVIDSREEYWGQGTQVTVSS	high polyreactivity
QVQLVESGGGLVQAGGSLRLSCAASGHSFFYYTMGWYRQAPGKERELVAGITIGGSTNYADSVKGRFTISRDNAKNTVYLQMNSLKPEETAVYYCKKRYVVSRKYDYWGQGTQVTVSS	low polyreactivity
QVQLVESGGGLVQAGGSLRLSCAASGHTFRFYTMGWSRQAPGKEREFVAAIRRRTGSTYYADSVKGRFTISRDNAKNTVYLQMNSLKPEDTAVYYCNAVGDARYNYWGQGTQVTVSS	high polyreactivity
QVQLVESGGGLVQAGGSLRLSCAASGIFAWNAMGWYRQAPGKERELVAAISWSGGSTYADSVKGRFTISRDNAKNTVYLQMNSLKPEDTAVYYCAKVSSLTSKSDYSGQGTQVTVSS	low polyreactivity
QVQLVESGGGLVQAGGSLRLSCAASGIFFLYGMGWYIQAPGKQRELVAVISTRDTTDYADSVKGRFTISRDKSKNTVNIQMNSLKPEDTAVYFCAATARSRSYSWSKLNYWGQGTQVTLSS	low polyreactivity
